Experimental data from PMC5869772, “Quantitative profiling of BATF family proteins/JUNB/IRF hetero-trimers using Spec-seq” (BMC Molecular Biology, 2018).
Each block holds one molecule with its values, some of them ahead of it.

Tests used:
BATF3;JUNB (human;human) = experiment: Spec-seq (EMSA); details: no IRF; 100 nM BATFx-JUNB, 150 nM IRF, 1 uM dsDNA library; 50 mM K acetate, 20 mM Tris-acetate, 10 mM Mg acetate, 100 ug/ml BSA, pH 7.9 (25 C), 10% glycerol; 30 min on …
BATF;JUNB (human;human) = experiment: Spec-seq (EMSA); details: no IRF; 100 nM BATFx-JUNB, 150 nM IRF, 1 uM dsDNA library; 50 mM K acetate, 20 mM Tris-acetate, 10 mM Mg acetate, 100 ug/ml BSA, pH 7.9 (25 C), 10% glycerol; 30 min on …
[1] = tested on: BATF2 (bZIP);JUNB (human;human); experiment: Spec-seq (EMSA); details: 100 nM BATFx-JUNB, 150 nM IRF, 1 uM dsDNA library, 50 mM K acetate, 20 mM Tris-acetate, 10 mM Mg acetate, 100 ug/ml BSA, pH 7.9 (25 C), 10% glycerol, 30 min on …
[2] = tested on: BATF3;JUNB;IRF4 (human;human;human); experiment: Spec-seq (EMSA); details: reference; 100 nM BATFx-JUNB, 150 nM IRF, 1 uM dsDNA library; 50 mM K acetate, 20 mM Tris-acetate, 10 mM Mg acetate, 100 ug/ml BSA, pH 7.9 (25 C), 10% glycerol; 30 min on …
[3] = tested on: BATF;JUNB;IRF4 (human;human;human); experiment: Spec-seq (EMSA); details: reference; 100 nM BATFx-JUNB, 150 nM IRF, 1 uM dsDNA library; 50 mM K acetate, 20 mM Tris-acetate, 10 mM Mg acetate, 100 ug/ml BSA, pH 7.9 (25 C), 10% glycerol; 30 min on …
[4] = tested on: BATF;JUNB;IRF8 (human;human;mouse); experiment: Spec-seq (EMSA); details: reference; 100 nM BATFx-JUNB, 150 nM IRF, 1 uM dsDNA library; 50 mM K acetate, 20 mM Tris-acetate, 10 mM Mg acetate, 100 ug/ml BSA, pH 7.9 (25 C), 10% glycerol; 30 min on …
[5] = tested on: BATF3;JUNB;IRF8 (human;human;mouse); experiment: Spec-seq (EMSA); details: reference; 100 nM BATFx-JUNB, 150 nM IRF, 1 uM dsDNA library; 50 mM K acetate, 20 mM Tris-acetate, 10 mM Mg acetate, 100 ug/ml BSA, pH 7.9 (25 C), 10% glycerol; 30 min on …
[6] = tested on: BATF2 (bZIP);JUNB;IRF4 (human;human;human); experiment: Spec-seq (EMSA); details: reference; 100 nM BATFx-JUNB, 150 nM IRF, 1 uM dsDNA library; 50 mM K acetate, 20 mM Tris-acetate, 10 mM Mg acetate, 100 ug/ml BSA, pH 7.9 (25 C), 10% glycerol; 30 min on …
[7] = tested on: BATF2 (bZIP);JUNB;IRF8 (human;human;mouse); experiment: Spec-seq (EMSA); details: reference; 100 nM BATFx-JUNB, 150 nM IRF, 1 uM dsDNA library; 50 mM K acetate, 20 mM Tris-acetate, 10 mM Mg acetate, 100 ug/ml BSA, pH 7.9 (25 C), 10% glycerol; 30 min on …
IRF4 (full length human) = biological target: T1, IRF4 (full length human) (human, UniProt Q15306 1-451); experiment: native gel or EMSA; complex formed on a dsDNA library: 100 nM BATFx-JUNB heterodimer, 150 nM IRF protein, 1 uM dsDNA library in 1x NEB Cutsmart buffer (pH 7.9) with 10% glycerol, 30 min on ice; native 9% PAGE in Tris/Glycine at 4 °C; details: both partners purified
T1 construct: IRF4 (interferon regulatory factor 4), human, full length; also called IRFx; source: E. coli BL21(DE3), purified (Strep-Tactin Superflow), strep-tag cleaved off by thrombin; not shown: Strep-tag, N-terminal, cleaved
T1 sequence (looked up): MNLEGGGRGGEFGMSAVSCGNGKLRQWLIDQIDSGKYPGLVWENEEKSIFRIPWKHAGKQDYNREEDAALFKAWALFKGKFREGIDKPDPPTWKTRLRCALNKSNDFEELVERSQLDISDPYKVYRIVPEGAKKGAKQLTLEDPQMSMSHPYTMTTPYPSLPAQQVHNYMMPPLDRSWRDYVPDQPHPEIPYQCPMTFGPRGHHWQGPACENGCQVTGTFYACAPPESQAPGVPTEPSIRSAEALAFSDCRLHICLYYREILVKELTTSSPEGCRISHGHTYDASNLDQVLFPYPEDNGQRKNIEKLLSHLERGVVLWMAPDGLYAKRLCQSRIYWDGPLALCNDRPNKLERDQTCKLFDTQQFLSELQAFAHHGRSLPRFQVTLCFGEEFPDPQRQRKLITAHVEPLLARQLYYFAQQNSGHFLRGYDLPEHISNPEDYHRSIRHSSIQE

IRF8 (full length mouse) = biological target: T2, IRF8 (full length mouse) (mouse, UniProt P23611 1-424); experiment: as above; details: both partners purified
T2 construct: IRF8 (interferon regulatory factor 8), mouse, full length; also called IRFx; source: E. coli BL21(DE3), purified (Strep-Tactin Superflow), strep-tag cleaved off by thrombin; not shown: Strep-tag, N-terminal, cleaved
T2 sequence (looked up): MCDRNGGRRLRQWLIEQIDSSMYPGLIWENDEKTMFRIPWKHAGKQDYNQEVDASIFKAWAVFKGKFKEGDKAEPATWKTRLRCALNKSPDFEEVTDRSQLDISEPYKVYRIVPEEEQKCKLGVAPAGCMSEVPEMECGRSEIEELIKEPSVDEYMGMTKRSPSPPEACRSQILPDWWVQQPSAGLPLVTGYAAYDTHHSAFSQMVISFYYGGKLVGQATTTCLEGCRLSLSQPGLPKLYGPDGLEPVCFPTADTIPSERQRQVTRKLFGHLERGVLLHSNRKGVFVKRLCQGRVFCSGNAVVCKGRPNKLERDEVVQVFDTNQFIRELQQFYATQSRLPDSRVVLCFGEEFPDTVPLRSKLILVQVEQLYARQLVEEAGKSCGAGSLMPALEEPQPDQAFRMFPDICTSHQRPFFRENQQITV

Molecule: CRE (TGACGTCA)
binding signal (kT (-ln bound/unbound)) (BATF3;JUNB (human;human)): -1.75
binding signal (kT (-ln bound/unbound)) (BATF;JUNB (human;human)): -1.05
binding signal (kT (-ln bound/unbound)) ([1]; no IRF): -1.32

Molecule: TRE-0sp (TGAGTCAT)
binding signal (kT (-ln bound/unbound)) (BATF;JUNB (human;human)): -1.05
binding signal (kT vs TRE-0sp) [2]: 0
binding signal (kT vs TRE-0sp) [3]: 0
binding signal (kT vs TRE-0sp) [4]: 0
binding signal (kT vs TRE-0sp) [5]: 0
binding signal (kT (-ln bound/unbound)) [1]: -0.903
binding signal (kT vs TRE-0sp) [6]: 0
binding signal (kT vs TRE-0sp) [7]: 0

Molecule: TRE-1sp (ATGAGTCA)
binding signal (kT (-ln bound/unbound)) (BATF;JUNB (human;human)): -1.25
binding signal (kT (-ln bound/unbound)) [1]: -1.01

binding result (IRF4 (full length human)): binds
binding result (IRF8 (full length mouse)): binds
B1: BATF–JUNB hetero-dimer (complex, human)
chain 1: MPHSSDSSDSSFSRSPPPGKQDSSDDVRRVQRREKNRIAAQKSRQRQTQKADTLHLESEDLEKQNAALRKEIKQLTEELKYFTSVLNSHEPLCSVLAASTPSPPEVVYSAHAFHQPHVSSPRFQP
chain 2: KMNHVTPPNVSLGATGGPPAGPGGVYAGPEPPPVYTNLSSYSPASASSGGAGAAVGTGSSYPTTTISYLPHAPPFAGGHPAQLGLGRGASTFKEEPQTVPEARSRDATPPVSPINMEDQERIKVERKRLRNRLAATKCRKRKLERIARLEDKVKTLKAENAGLSSTAGLLREQVAQLKQKVMTHVSNGCQLLLGVKGHAF
notes: BATF, human, full length; Heterodimer formed by co-expression before purification; also called BATFx–JUNB; source: SHuffle T7 Express E. coli, co-expressed, purified (Ni-NTA agarose), mCherry cleaved off with ProTEV Plus; not shown: mCherry, N-terminal, cleaved

binding result (IRF4 (full length human)): binds
binding result (IRF8 (full length mouse)): binds
B2: BATF2–JUNB hetero-dimer (complex, human)
chain 1: MHLCGGNGLLTQTDPKEQQRQLKKQKNRAAAQRSRQKHTDKADALHQQHESLEKDNLALRKEIQSLQAELAWWSRTLHVHERLCPMDCASCSAPGLLGCWDQAEGLLGPGPQGQHGCREQLELFQTPGSCYPAQPLSPGPQP
chain 2: B1 chain 2
notes: Heterodimer formed by co-expression before purification; also called BATFx–JUNB; source: SHuffle T7 Express E. coli, co-expressed, purified (Ni-NTA agarose), mCherry cleaved off with ProTEV Plus; not shown: mCherry, N-terminal, cleaved
